This experiment concerns the target T1, Sec24 (S. cerevisiae, UniProt P40482 1-926).
T1 construct: Sec24, S. cerevisiae; The Sec24 chain of m2; in the assays it stood in the Sec23–Sec24 complex
T1 sequence: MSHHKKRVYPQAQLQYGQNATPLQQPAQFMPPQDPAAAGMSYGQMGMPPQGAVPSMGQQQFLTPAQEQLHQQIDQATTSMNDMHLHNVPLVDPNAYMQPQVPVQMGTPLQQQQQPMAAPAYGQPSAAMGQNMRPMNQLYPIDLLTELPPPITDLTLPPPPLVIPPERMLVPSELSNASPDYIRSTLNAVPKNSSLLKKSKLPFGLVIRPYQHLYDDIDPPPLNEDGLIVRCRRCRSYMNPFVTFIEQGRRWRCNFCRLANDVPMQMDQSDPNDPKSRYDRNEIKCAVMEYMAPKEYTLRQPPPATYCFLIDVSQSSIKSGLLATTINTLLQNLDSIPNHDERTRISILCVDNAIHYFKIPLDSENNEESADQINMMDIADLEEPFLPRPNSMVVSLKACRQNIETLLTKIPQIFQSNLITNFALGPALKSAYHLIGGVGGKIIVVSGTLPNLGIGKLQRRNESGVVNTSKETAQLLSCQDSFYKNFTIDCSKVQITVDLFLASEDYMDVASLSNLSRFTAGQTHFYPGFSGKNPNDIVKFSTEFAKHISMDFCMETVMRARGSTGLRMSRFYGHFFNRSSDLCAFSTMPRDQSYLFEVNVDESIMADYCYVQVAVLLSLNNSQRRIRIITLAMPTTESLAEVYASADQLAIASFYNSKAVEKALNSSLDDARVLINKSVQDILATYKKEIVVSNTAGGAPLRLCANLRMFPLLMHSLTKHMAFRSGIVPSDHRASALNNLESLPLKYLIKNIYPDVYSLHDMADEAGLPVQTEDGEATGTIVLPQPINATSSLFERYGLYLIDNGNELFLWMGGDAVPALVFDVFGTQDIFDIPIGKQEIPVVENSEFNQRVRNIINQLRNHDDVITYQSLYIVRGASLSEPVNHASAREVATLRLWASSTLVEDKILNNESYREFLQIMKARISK
In words: cryo-EM structure; cryo-ET with subtomogram averaging of COPII budding reactions on GUVs enriched with Sed5 held by its 6xHis-tag on Ni-NTA lipids: 1 μM Sar1, 180 nM Sec23–Sec24, 173 μM Sec13–Sec31, 360 nM Sed5, 1 mM GMP-PNP, 2.5 mM EDTA (pH 8.0), 10% GUVs (v/v); coated tubes; atomic models rigid-body fitted. The note with it: both partners purified.

We go through 1 molecule from PMC11919764, “Cryo-electron tomography reveals how COPII assembles on cargo-containing membranes” (Nature Structural & Molecular Biology, 2024).

B1: Sed5 cytosolic domain (residues 1–319) with C-terminal 6xHis-tag (domain or fragment, S. cerevisiae)
chain: MNIKDRTSEFQQSVLSYKKRNKNFREQQRERLQEKESENFANNTTGNGKSVSEFQKKASGIAHEISSTAQLLSKLAVLAKRKPMFNDNPVEIAELSFLIKRKIYAIEQSLVQLSQLKKTDVNGNTSNQSSKQPSAVQHSKNVVNLLNTQMKNISGSFKDVLEERQRLEMANKDRWQKLTTDTGHAPADDQTQSNHAADLTTYNNSNPFMTSLLDESSEKNNNSSNQGELSFPQNDSQLMLMEEGQLSNNVYLQERNRAVETIESTIQEVGNLFQQLASMVQEQGEVIQRIDANVDDIDLNISGAQRELLKYFDRIKSNRGGG
notes: Sed5, S. cerevisiae S288c, UniProt Q01590, residues 1–319 (transmembrane helix truncated); flexible triple-glycine linker between residue 319 of Sed5 and the 6xHis-tag; Held on GUVs through Ni-NTA tagged lipids by its C-terminal 6xHis-tag, which stands in place of the transmembrane domain; also called 6xHis-tagged Sed5; source: E. coli BL21, purified (Ni-NTA, HiTrap Q, Superdex 200); not shown: …
On to B1, for which the binding result is given as “binds”.
